Data set [1] deals with BadA head fragment after chymotrypsin treatment (protease-resistant fragment of approx. 14 kDa) (Bartonella henselae). Kind of data set: not stated; fragments of approx. 14 kDa after trypsin or chymotrypsin treatment (10 min, room temperature, 20 mM MOPS/KOH pH 7.2, 150 mM NaCl); how the trimers were shown is not told.
Data set [2] deals with BadA head fragment after trypsin treatment (protease-resistant fragment of approx. 14 kDa) (Bartonella henselae). Described as above.
Data set [3] concerns the molecule itself. Kind of data set: SEC-MALS; calibrated analytical S200 column (GE Healthcare) coupled to a MiniDAWN Tristar static light scattering detector; data not shown.

Here are results for 3 molecules from publication PMC2483945, “Structure of the Head of the Bartonella Adhesin BadA” (PLoS Pathogens, 2008).

The molecule “BadA head fragment after chymotrypsin treatment (protease-resistant fragment of approx. 14 kDa) (domain or fragment)” yielded a stoichiometry N in data set [1] of 3.
“BadA head fragment after trypsin treatment (protease-resistant fragment of approx. 14 kDa) (domain or fragment)” yielded a stoichiometry N in data set [2] of 3.

B1: BadA head fragment (Trp-ring domain, GIN domain, neck and first stalk segment; residues 375 to 536) (domain or fragment)
chain: KALRGMISEKGGWNLTVNNDNNTVVSSGGALDLSSGSKNLKIVKDGKKNNVTFDVARDLTLKSIKLDGVTLNETGLFIANGPQITASGINAGSQKITGVAEGTDANDAVNFGQLKKIETEVKEQVAASGFVKQDSDTKYLTIGKDTDGDTINIANNKSDKRT
notes: Residues 385-498 are resolved in the crystal; also called BadA construct; BadA fragment; source: recombinantly expressed, purified as described [11]
For the molecule B1, in data set [3], the “stoichiometry N” value was 3.
